{"source": "paper PMC10123104", "proteins": {"B1": {"name": "ObgE (Escherichia coli K-12) (protein)", "chain": "MKFVDEASILVVAGDGGNGCVSFRREKYIPKGGPDGGDGGDGGDVWMEADENLNTLIDYRFEKSFRAERGQNGASRDCTGKRGKDVTIKVPVGTRVIDQGTGETMGDMTKHGQRLLVAKGGWHGLGNTRFKSSVNRTPRQKTNGTPGDKRELLLELMLLADVGMLGMPNAGKSTFIRAVSAAKPKVADYPFTTLVPSLGVVRMDNEKSFVVADIPGLIEGAAEGAGLGIRFLKHLERCRVLLHLIDIDPIDGTDPVENARIIISELEKYSQDLATKPRWLVFNKIDLLDKVEAEEKAKAIAEALGWEDKYYLISAASGLGVKDLCWDVMTFIIENPVVQAEEAKQPEKVEFMWDDYHRQQLEEIAEEDDEDWDDDWDEDDEEGVEFIYKR", "notes": "full length, N-terminally His6-tagged (pET28a), nucleotide-free after alkaline phosphatase treatment"}}, "substrate": "Nc1nc2c(ncn2[C@@H]2O[C@H](COP(=O)(O)OP(=O)(O)OP(=O)(O)O)[C@@H](O)[C@H]2O)c(=O)[nH]1", "assay": "purified protein, by the assay type", "type": "biochemical", "experimental": "Nucleotides were detected at 254 nm. […] All measurements were performed in triplicate."}
{"protein": "B1", "values": [{"measurement": "Km", "value": 4, "unit": "µM"}]}
